Target: Ras:G12V mutant (UniProt P01112)
Test: pull-down

percent inhibition of binding: 80%
B1: RIN1-RA:R629A mutant (natural protein)
chain: MESPGESGAGSPGAPSPSSFTTGHLAREKPAQDPLYDVPNASGGQAGGPQRPGRVVSLRERLLLTRPVWLQLQANAAAALHMLRTEPPGTFLVRKSNTRQCQALCMRLPEASGPSFVSSHYILESPGGVSLEGSELMFPDLVQLICAYCHTRDILLLPLQLPRAIHHAATHKELEAISHLGIEFWSSSLNIKAQRGPAGGPVLPQLKARSPQELDQGTGAALCFFNPLFPGDLGPTKREKFKRSFKVRVSTETSSPLSPPAVPPPPVPVLPGAVPSQTERLPPCQLLRRESSVGYRVPAGSGPSLPPMPSLQEVDCGSPSSSEEEGVPGSRGSPATSPHLGRRRPLLRSMSAAFCSLLAPERQVGRAAAALMQDRHTAAGQLVQDLLTQVRAGPEPQELQGIRQALSRARAMLSAELGPEKLLSPKRLEHVLEKSLHCSVLKPLRPILAARLRRRLAADGSLGRLAEGLRLARAQGPGAFGSHLSLPSPVELEQVRQKLLQLLRTYSPSAQVKRLLQACKLLYMALRTQEGEGAGADEFLPLLSLVLAHCDLPELLLEAEYMSELLEPSLLTGEGGYYLTSLSASLALLSGLGQAHTLPLSPVQELRRSLSLWEQRRLPATHCFQHLLAVAYQDPSSGCTSKTLAVPPEASIATLNQLCATKFRVTQPNTFGLFLYKEQGYHRLPPGALAHRLPTTGYLVYRRAEWPETQGAVTEEEGSGQSEARSRGEEQGCQGDGDAGVKASPRDIREQSETTAEGGQGQAQEGPAQPGEPEAEGSRAAEE
